Assay [1] deals with hexon protein on the viral capsid of Ad5 vectors with SpyTag inserted into HVR loops (loop not specified). Put plainly: covalent coupling of SpyCatcher to virions, SDS-PAGE band densitometry (ImageJ).
The target in another assay is T1, Ad5-HVR1-DogTag Hexon (human adenovirus serotype 5 (Ad5), UniProt P04133 2-952).
T1 construct: also called HVR1DT; hexon-DogTag

Another assay concerns the target T2, Ad5-HVR2-DogTag Hexon (human adenovirus serotype 5 (Ad5), UniProt P04133 30-952).
T2 construct: also called HVR2DT; hexon-DogTag

For assay [2], the target named is T3, Ad5-HVR5-DogTag Hexon (human adenovirus serotype 5 (Ad5), UniProt P04133 21-952).
T3 construct: also called HVR5DT; Ad5(GFP) HVR5 DogTag

Assay [3] addresses T3, Ad5-HVR5-DogTag Hexon. This is another data set of the same source.
For assay [4], the target named is T3, Ad5-HVR5-DogTag Hexon. The source holds these as a separate data set.

Read-outs that look alike come from different tables or passages of the source.

Consider SpyCatcher (designed binder), for which the % of hexon protein coupled in assay [1] was above 50%.

B1: DogCatcher (designed binder)
chain: MGSSHHHHHHSSGLVPRGSHMKLGDIEFIKVNKNDKKPLRGAVFSLQKQHPDYPDIYGAIDQNGTYQNVRTGEDGKLTFKNLSDGKYRLFENSEPAGYKPVQNKPIVAFQIVNGEVRDVTSIVPQ
notes: His-tagged DogCatcher expressed in E. coli; forms a spontaneous isopeptide bond with DogTag; also called DC; RrgACatcher
For the molecule B1, the “coverage of capsid hexon (%)” value in the assay with Ad5-HVR1-DogTag Hexon, with Ad5-HVR2-DogTag Hexon and with Ad5-HVR5-DogTag Hexon [2] was above 90% throughout.

B2: DogCatcher-NANP18 (other)
chain: MAHHHHHHVGTGKLGDIEFIKVNKNDKKPLRGAVFSLQKQHPDYPDIYGAIDQNGTYQNVRTGEDGKLTFKNLSDGKYRLFENSEPAGYKPVQNKPIVAFQIVNGEVRDVTSIVPQGSGGSGGSNANPNANPNANPNANPNANPNANPNANPNANPNANPNANPNANPNANPNANPNANPNANPNANPNANPNANP
notes: also called DC-NANP18
In the case of B2, the binding result with Ad5-HVR5-DogTag Hexon [3] is “binds”.

B3: DogCatcher-NANP Domain (other)
chain: MAHHHHHHVGTGKLGDIEFIKVNKNDKKPLRGAVFSLQKQHPDYPDIYGAIDQNGTYQNVRTGEDGKLTFKNLSDGKYRLFENSEPAGYKPVQNKPIVAFQIVNGEVRDVTSIVPQGSGGSGGSNANPNVDPNANPNVDPNANPNVDPNANPNANPNANPNANPNANPNANPNANPNANPNANPNANPNANPNANPNANPNANPNANPNANPNANPNVDPNANPNANPNANPNANPNANPNANPNANPNANPNANPNANPNANPNANPNANPNANPNANPNANPNANPNANP
As to B3, the binding result with Ad5-HVR5-DogTag Hexon [3] is given as “binds”.

B4: DogCatcher-NANP9 (other)
chain: MAHHHHHHVGTGKLGDIEFIKVNKNDKKPLRGAVFSLQKQHPDYPDIYGAIDQNGTYQNVRTGEDGKLTFKNLSDGKYRLFENSEPAGYKPVQNKPIVAFQIVNGEVRDVTSIVPQGSGGSGGSNANPNANPNANPNANPNANPNANPNANPNANPNANP
Consider B4, for which the binding result with Ad5-HVR5-DogTag Hexon [3] was “binds”.

B5: Biotin-SnoopTagJr (peptide)
peptide: GKLGSIEFIKVNK
modifications: N-terminal biotin
notes: also called SnJr-biotin; Biotinylated SnJr-peptide
Turning to B5, the binding result with Ad5-HVR5-DogTag Hexon [4] is “binds”.

For the origin of these results see patent US20220372514A1 (SPYBIOTECH, published 2022).
